The values that follow come from US20150167004, “OLIGONUCLEOTIDE INHIBITORS OF DNA […] AND THEIR USE IN TREATING DISEASES” (METHEOR THERAPEUTICS CORPORATION, published 2015).

Data set [1] has as its target T1, DNMT1 (Homo sapiens, UniProt P26358 P26358:1-1616). The data set is described as follows: inhibition; 25 nM DNMT1, poly(dI:dC) substrate, 1 uM SAM; table header cites SEQ 5 and 6 but oligo is MTC-424F/R; Table 5 gives 1.43 uM. How it is done:
(§1) DNA Methyltransferase 1 (DNMT1) was essentially assayed as described in Tollefsbol, T. O. and Hutchison III, C. A.: J. Biol. Chem. (1995), 270:18543-50 with the following modifications. Assay reaction was 5 μl volume, the DNA substrate was poly (dI:dC) 0.001 mg/ml and co-factor S-AdoMet at 1.0 μM; human DNMT1 was added at 25 nM. Reaction: S-adenosyl-L-[methyl-3H] methionine+DNA=S-adenosyl-L-homocysteine+DNA 5-[methyl-3H]-cytosine. S-AdoHCy was used as a positive control for the inhibition reaction.

Data set [2] deals with T2, DNMT3A (Homo sapiens, UniProt Q9Y6K1 Q9Y6K1:1-912). The data set is described as follows: inhibition; 25 nM DNMT3A, lambda DNA substrate, 1 uM SAM.
T2 sequence (Q9Y6K1 whole entry, one chain of several): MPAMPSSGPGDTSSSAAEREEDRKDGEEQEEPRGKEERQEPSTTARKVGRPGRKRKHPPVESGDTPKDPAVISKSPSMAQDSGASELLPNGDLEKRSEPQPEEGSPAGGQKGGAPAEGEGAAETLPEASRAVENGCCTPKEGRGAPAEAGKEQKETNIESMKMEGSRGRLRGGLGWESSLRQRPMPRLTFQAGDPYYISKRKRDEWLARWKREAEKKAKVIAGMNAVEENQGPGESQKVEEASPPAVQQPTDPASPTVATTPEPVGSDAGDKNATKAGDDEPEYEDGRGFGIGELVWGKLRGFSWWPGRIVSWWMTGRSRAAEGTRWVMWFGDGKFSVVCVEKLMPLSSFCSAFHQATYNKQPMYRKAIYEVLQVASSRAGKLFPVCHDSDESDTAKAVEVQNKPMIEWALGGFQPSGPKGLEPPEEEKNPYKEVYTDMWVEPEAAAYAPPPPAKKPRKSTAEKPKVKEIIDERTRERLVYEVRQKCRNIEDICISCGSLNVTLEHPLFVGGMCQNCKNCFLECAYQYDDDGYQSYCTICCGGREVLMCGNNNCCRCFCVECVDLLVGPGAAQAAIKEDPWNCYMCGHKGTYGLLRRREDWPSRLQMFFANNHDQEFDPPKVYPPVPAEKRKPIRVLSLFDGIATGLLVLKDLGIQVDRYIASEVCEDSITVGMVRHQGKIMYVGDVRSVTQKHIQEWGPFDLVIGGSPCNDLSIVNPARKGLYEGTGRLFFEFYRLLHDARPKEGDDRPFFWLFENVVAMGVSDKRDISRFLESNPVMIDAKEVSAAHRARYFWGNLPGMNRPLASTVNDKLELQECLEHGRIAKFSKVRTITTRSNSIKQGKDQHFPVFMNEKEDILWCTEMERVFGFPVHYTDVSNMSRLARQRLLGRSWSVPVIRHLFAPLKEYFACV
For data set [3], the target named is T3, DNMT3B (DNMT3b1) (Homo sapiens, UniProt Q9UBC3 Q9UBC3:1-853). Description: inhibition; tritiated methyl incorporation from SAM; IC50 not estimable in Table 4.
The target in data set [4] is T1, DNMT1. Description: inhibition; tritiated methyl incorporation from SAM.
Data set [5] addresses T2, DNMT3A. Description: inhibition; 25 nM DNMT3A, lambda DNA substrate, 1 uM SAM; Table 5 gives 1.5 uM.
Data set [6] concerns the target T1, DNMT1. Description: inhibition; 25 nM DNMT1, poly(dI:dC) substrate, 1 uM SAM; Table 5 gives 348 nM. Particulars: hairpin. How it is done:
as §1

In data set [7] the target is T3, DNMT3B (DNMT3b1). The data set is described as follows: inhibition; 25 nM DNMT3B, lambda DNA substrate, 1 uM SAM; Table 5 gives 18.9 uM.
For data set [8], the target named is T3, DNMT3B (DNMT3b1). The data set is described as follows: inhibition; tritiated methyl incorporation from SAM.
In data set [9] the target is T2, DNMT3A. The description is as above.
The target in data set [10] is T3, DNMT3B (DNMT3b1). The data set is described as follows: inhibition; 25 nM DNMT3B, lambda DNA substrate, 1 uM SAM.
The target in data set [11] is T1, DNMT1. Description: inhibition; 25 nM DNMT1, poly(dI:dC) substrate, 1 uM SAM; Table 5 gives 5.52 uM. To be noted: hairpin. How it is done: as §1

T1 sequence (P26358 whole entry, one chain of several): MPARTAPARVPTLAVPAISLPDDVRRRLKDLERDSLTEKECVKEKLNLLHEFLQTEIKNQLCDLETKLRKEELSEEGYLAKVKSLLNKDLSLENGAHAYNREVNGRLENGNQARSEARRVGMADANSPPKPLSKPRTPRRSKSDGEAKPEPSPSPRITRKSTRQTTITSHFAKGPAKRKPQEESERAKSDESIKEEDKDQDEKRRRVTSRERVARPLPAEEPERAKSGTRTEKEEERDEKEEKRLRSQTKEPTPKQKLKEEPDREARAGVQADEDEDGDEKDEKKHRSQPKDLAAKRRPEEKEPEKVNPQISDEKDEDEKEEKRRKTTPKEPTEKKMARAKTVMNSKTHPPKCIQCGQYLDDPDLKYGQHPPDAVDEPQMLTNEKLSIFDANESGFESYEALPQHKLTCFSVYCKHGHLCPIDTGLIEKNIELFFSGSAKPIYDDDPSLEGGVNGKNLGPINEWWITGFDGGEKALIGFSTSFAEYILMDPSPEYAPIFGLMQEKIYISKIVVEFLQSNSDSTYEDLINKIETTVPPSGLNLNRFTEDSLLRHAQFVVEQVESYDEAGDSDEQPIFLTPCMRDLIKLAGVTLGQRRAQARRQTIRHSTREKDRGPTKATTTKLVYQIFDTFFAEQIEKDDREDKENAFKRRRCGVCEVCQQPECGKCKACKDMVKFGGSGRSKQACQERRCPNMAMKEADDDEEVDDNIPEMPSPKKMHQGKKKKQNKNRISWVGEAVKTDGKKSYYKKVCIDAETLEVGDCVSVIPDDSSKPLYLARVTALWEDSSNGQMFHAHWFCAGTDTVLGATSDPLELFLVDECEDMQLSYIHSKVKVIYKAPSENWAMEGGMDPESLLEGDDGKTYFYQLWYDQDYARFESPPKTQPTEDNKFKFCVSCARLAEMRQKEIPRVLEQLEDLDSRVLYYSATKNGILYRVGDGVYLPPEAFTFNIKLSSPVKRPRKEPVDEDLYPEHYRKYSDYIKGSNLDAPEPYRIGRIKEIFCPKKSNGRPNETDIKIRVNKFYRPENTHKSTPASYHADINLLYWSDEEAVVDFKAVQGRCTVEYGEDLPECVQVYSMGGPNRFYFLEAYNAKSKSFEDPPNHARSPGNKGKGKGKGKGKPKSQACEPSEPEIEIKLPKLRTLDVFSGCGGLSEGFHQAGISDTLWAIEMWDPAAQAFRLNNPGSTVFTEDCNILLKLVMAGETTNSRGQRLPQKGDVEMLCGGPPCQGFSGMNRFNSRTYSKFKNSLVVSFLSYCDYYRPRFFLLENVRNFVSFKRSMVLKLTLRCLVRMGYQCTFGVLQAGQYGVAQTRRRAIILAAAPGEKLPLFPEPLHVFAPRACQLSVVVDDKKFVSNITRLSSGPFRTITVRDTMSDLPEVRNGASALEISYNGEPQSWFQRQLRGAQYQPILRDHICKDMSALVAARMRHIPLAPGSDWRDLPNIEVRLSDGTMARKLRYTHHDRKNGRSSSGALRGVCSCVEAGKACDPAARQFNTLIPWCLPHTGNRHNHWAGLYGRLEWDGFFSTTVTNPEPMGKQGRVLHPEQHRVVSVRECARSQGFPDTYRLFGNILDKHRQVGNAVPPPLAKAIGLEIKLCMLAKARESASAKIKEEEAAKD

B1: MTC-424 (dsDNA)
DNA 1: GTACATGCGCTCCAGA
DNA 2: TCTGGAGCGCATGTAC
modifications: 5-aza-5,6-dihydro-dC at 8 of F strand; phosphodiester [F strand: 8]
As a reminder, the IC50 is the concentration that inhibits the measured activity by half. A higher IC50 goes with lower potency. Consider B1, for which the IC50 in the data set with DNMT1 [1] was 1940 nM; in the data set with DNMT3A [2], 10.2 µM; with DNMT3B (DNMT3b1) [3], over 100 µM.

CCTATGCGATCGAGTTTTCTCGATCGCATAGG (structured_DNA, 5mC at 7 and 11; deoxy-zebularine at 21 and 25; PS backbone [7,11,21,25]) [MTC-433]: the IC50 with DNMT1 [4] (hairpin) worked out at 4.22 nM.

B2: MTC-423 (structured_DNA)
DNA: CCTATGCGATCGAGTTTTCTCGATCGCATAGG
modifications: zebularine (pyrimidin-2-one ribonucleoside) at 21 and 25; phosphodiester [21,25]
As to B2, the values for the IC50 with DNMT3A [5], with DNMT1 [6] and with DNMT3B (DNMT3b1) [7] were 1600 nM, 363 nM and 17.5 µM, respectively.

B3: MTC-427 (MTC-423m) (structured_DNA)
DNA: B2 DNA
modifications: 5mC at 7 and 11; zebularine (pyrimidin-2-one ribonucleoside) at 21 and 25; phosphodiester [7,11,21,25]
Regarding B3, the IC50 in the data set with DNMT1 [4] (hairpin) amounted to 295 nM; in the data set with DNMT3B (DNMT3b1) [8] it was 6.2 µM; in the data set with DNMT3A [9] it was 1.52 µM.

B4: MTC-422 (structured_DNA)
DNA: B2 DNA
modifications: 5-aza-5,6-dihydro-dC at 21 and 25; phosphodiester [21, 25 (5-aza-5,6-dihydro-dC)]
In the case of B4, the IC50 with DNMT3A [2] was found to be 5.7 µM; with DNMT3B (DNMT3b1) [10], 21.3 µM; with DNMT1 [11], 1430 nM.

For CCTATGCGATCGAGTTTTCTCGATCGCATAGG (structured_DNA, 5mC at 7 and 11; 5-aza-5,6-dihydro-dC at 21 and 25; phosphodiester [7,11,21,25]) [MTC-425 (MTC-422m)], the IC50 with DNMT1 [4] (hairpin) was 504 nM; in the data set with DNMT3B (DNMT3b1) [8], over 100 µM; in the data set with DNMT3A [9], 6.69 µM.

CCTATGCGATCGAGTTTTCTCGATCGCATAGG (structured_DNA, deoxy-zebularine at 21 and 25; PS backbone [21,25]) [MTC-432]: 8.3 nM corresponded to half-maximal inhibition with DNMT1 [4] (hairpin) (IC50).

B5: MTC-429 (dsDNA)
DNA 1: GTACATGCGCTCCAGA
DNA 2: TCTGGAGCGCATGTAC
modifications: 5-aza-5,6-dihydro-dC at 8 of F strand; 5mC at 8 of R strand; phosphodiester [F strand: 8; R strand: 8]
Regarding B5, the IC50 in the data set with DNMT1 [4] is 906 nM; in the data set with DNMT3A [9], over 50 µM.
